Self-cleavage data for 39 variants are collected here from the RNAGym collection of RNA variant scans (doi:10.7554/elife.80360).

B1: CPEB3 Ribozyme (parent)
chain: GGGGGCCACAGCAGAAGCGUUCACGUCGCGGCCCCUGUCAGAUUCUGGUGAAUCUGCGAAUUCUGCUGU

Variants of B1 are the subject of the data set. Briefly: self-cleavage, relative activity (ratio to wild type); higher = more cleavage; co-transcriptional.
Turning to GGGGGCCACAGCAGAAGCGUUCACGUCGCGGCCCCUGUCAGAUUCUGGAGAAUCUGCGAAUUCGGCUGU, the self-cleavage was 0.835.

Regarding GGGGGCCACAGCAGAAGCGUUCACGUCGCGGCCCCUGUCAGAUUCUGGAGAAUCUGCGAAUUCCGCUGU, the self-cleavage worked out at 0.919.

For GGGGGCCACAGCAGAAGCGUUCACGUCGCGGCCCCUGUCAGAUUCUGGAGAAACUGCGAAUUCUGCUGU, the self-cleavage was found to be 0.984.

Regarding GGGGGCCACAGCAGAAGCGUUCACGUCGCGGCCCCUGUCAGAUUCUGGAGAAGCUGCGAAUUCUGCUGU, the self-cleavage came to 0.95.

As for GGGGGCCACAGCAGAAGCGUUCACGUCGCGGCCCCUGUCAGAUUCUGGAGAAUCUGCGAAUUCUACUGU, the self-cleavage was determined as 0.934.

Regarding GGGGGCCACAGCAGAAGCGUUCACGUCGCGGCCCCUGUCAGAUUCUGGAGAAUCUGCGAAUUCUCCUGU, the self-cleavage turned out to be 0.476.

As for GGGGGCCACAGCAGAAGCGUUCACGUCGCGGCCCCUGUCAGAUUCUGGAGAAUCUGCGAAUUCUGCUGG, the self-cleavage stood at 1.06.

In the case of GGGGGCCACAGCAGAAGCGUUCACGUCGCGGCCCCUGUCAGAUUCUGGCGAAUGUGCGAAUUCUGCUGU, the self-cleavage came out at 0.789.

GGGGGCCACAGCAGAAGCGUUCACGUCGCGGCCCCUGUCAGAUUCUGGCGAAUUUGCGAAUUCUGCUGU: the self-cleavage amounted to 0.965.

As to GGGGGCCACAGCAGAAGCGUUCACGUCGCGGCCCCUGUCAGAUUCUGGACAAUCUGCGAAUUCUGCUGU, the self-cleavage amounted to 1.02.

On to GGGGGCCACAGCAGAAGCGUUCACGUCGCGGCCCCUGUCAGAUUCUGGAGAAUCUGCGAAUACUGCUGU, for which the self-cleavage was found to be 0.99.

For the variant GGGGGCCACAGCAGAAGCGUUCACGUCGCGGCCCCUGUCAGAUUCUGGAGAAUCUGCGAAUCCUGCUGU, the self-cleavage stood at 0.825.

In the case of GGGGGCCACAGCAGAAGCGUUCACGUCGCGGCCCCUGUCAGAUUCUGGCGAAUCUGCGCAUUCUGCUGU, the self-cleavage was 0.764.

GGGGGCCACAGCAGAAGCGUUCACGUCGCGGCCCCUGUCAGAUUCUGGCGAAUCUGCGGAUUCUGCUGU: the self-cleavage was determined as 0.985.

GGGGGCCACAGCAGAAGCGUUCACGUCGCGGCCCCUGUCAGAUUCUGGCGAAUCUGCGUAUUCUGCUGU: the self-cleavage turned out to be 0.811.

Turning to GGGGGCCACAGCAGAAGCGUUCACGUCGCGGCCCCUGUCAGAUUCUGGAGAAUCUGCCAAUUCUGCUGU, the self-cleavage was 1.02.

GGGGGCCACAGCAGAAGCGUUCACGUCGCGGCCCCUGUCAGAUUCUGGAGAAUCUGCUAAUUCUGCUGU: the self-cleavage was 0.972.

For GGGGGCCACAGCAGAAGCGUUCACGUCGCGGCCCCUGUCAGAUUCUGGAGAAUCAGCGAAUUCUGCUGU, the self-cleavage came to 0.968.

For GGGGGCCACAGCAGAAGCGUUCACGUCGCGGCCCCUGUCAGAUUCUGGAGAAUCUGCGAAUUCUGCUAU, the self-cleavage was 1.02.

Consider GGGGGCCACAGCAGAAGCGUUCACGUCGCGGCCCCUGUCAGAUUCUGGAGAAUCUGCGAAUUCUGCUCU, for which the self-cleavage was found to be 0.994.

For the variant GGGGGCCACAGCAGAAGCGUUCACGUCGCGGCCCCUGUCAGAUUCUGGAGAAUCUGCGAAUUCUGCAGU, the self-cleavage came to 1.05.

For GGGGGCCACAGCAGAAGCGUUCACGUCGCGGCCCCUGUCAGAUUCUGGCGAAUCUGCGAUUUCUGCUGU, the self-cleavage is 0.535.

For GGGGGCCACAGCAGAAGCGUUCACGUCGCGGCCCCUGUCAGAUUCUGGCGAAUCUGCGACUUCUGCUGU, the self-cleavage is 0.354.

As for GGGGGCCACAGCAGAAGCGUUCACGUCGCGGCCCCUGUCAGAUUCUGGCGAGUCUGCGAAUUCUGCUGU, the self-cleavage stood at 0.972.

For GGGGGCCACAGCAGAAGCGUUCACGUCGCGGCCCCUGUCAGAUUCUGGCGACUCUGCGAAUUCUGCUGU, the self-cleavage came to 1.03.

With GGGGGCCACAGCAGAAGCGUUCACGUCGCGGCCCCUGUCAGAUUCUGGCGAUUCUGCGAAUUCUGCUGU, the self-cleavage was 0.93.

Turning to GGGGGCCACAGCAGAAGCGUUCACGUCGCGGCCCCUGUCAGAUUCUGGCGUAUCUGCGAAUUCUGCUGU, the self-cleavage was found to be 0.887.

Consider GGGGGCCACAGCAGAAGCGUUCACGUCGCGGCCCCUGUCAGAUUCUGGCGCAUCUGCGAAUUCUGCUGU, for which the self-cleavage worked out at 0.981.

GGGGGCCACAGCAGAAGCGUUCACGUCGCGGCCCCUGUCAGAUUCUGGAGAAUCUGCGAAGUCUGCUGU: the self-cleavage was 0.904.

With GGGGGCCACAGCAGAAGCGUUCACGUCGCGGCCCCUGUCAGAUUCUGGAGAAUCUGCGAAAUCUGCUGU, the self-cleavage amounted to 0.979.

In the case of GGGGGCCACAGCAGAAGCGUUCACGUCGCGGCCCCUGUCAGAUUCUGGAGAAUCUUCGAAUUCUGCUGU, the self-cleavage was found to be 0.991.

Consider GGGGGCCACAGCAGAAGCGUUCACGUCGCGGCCCCUGUCAGAUUCUGGAGAAUCUACGAAUUCUGCUGU, for which the self-cleavage was found to be 1.

For GGGGGCCACAGCAGAAGCGUUCACGUCGCGGCCCCUGUCAGAUUCUGGCGAAUCUGCGAAUUGUGCUGU, the self-cleavage turned out to be 0.832.

Regarding GGGGGCCACAGCAGAAGCGUUCACGUCGCGGCCCCUGUCAGAUUCUGGCGAAUCUGCGAAUUAUGCUGU, the self-cleavage is 0.882.

As to GGGGGCCACAGCAGAAGCGUUCACGUCGCGGCCCCUGUCAGAUUCUGGCGAAUCUGUGAAUUCUGCUGU, the self-cleavage came to 0.345.

With GGGGGCCACAGCAGAAGCGUUCACGUCGCGGCCCCUGUCAGAUUCUGGCGAAUCUGGGAAUUCUGCUGU, the self-cleavage came to 0.265.

As to GGGGGCCACAGCAGAAGCGUUCACGUCGCGGCCCCUGUCAGAUUCUGGCGAAUCUGAGAAUUCUGCUGU, the self-cleavage was found to be 0.216.

As for GGGGGCCACAGCAGAAGCGUUCACGUCGCGGCCCCUGUCAGAUUCUGGCGAAUCUGCGAAUUCUGUUGU, the self-cleavage was 0.973.

For GGGGGCCACAGCAGAAGCGUUCACGUCGCGGCCCCUGUCAGAUUCUGGCGAAUCUGCGAAUUCUGGUGU, the self-cleavage came out at 0.879.
